Assay results from article PMC12339479.

Target: Chicken ACE2-hFc (soluble chicken ACE2 residues 18-740 fused to human IgG1 Fc) (chicken (Gallus gallus))
Experiment: SPR

Row | Substance | Kd [µM] | kon [M⁻¹ s⁻¹]
1 | SARS-CoV-2 Omicron BA.5 RBD monomer (from UniProt P0DTC2) (domain or fragment) | 0.375 | –
2 | SARS-CoV-2 Alpha (B.1.1.7) RBD monomer (from UniProt P0DTC2) (domain or fragment) | 409 | 300
3 | SARS-CoV-2 Gamma (P.1) RBD monomer (from UniProt P0DTC2) (domain or fragment) | 44.7 | 4200
4 | SARS-CoV-2 Omicron BA.2 RBD monomer (from UniProt P0DTC2) (domain or fragment) | 0.334 | 258000
